The data set concerns the molecule itself. As to the kind of experiment: SAXS.

The term stoichiometry N denotes the number of molecules, sites or subunits per partner or assembly.

B1: human P5 (PDIA6), full-length (enzyme, UniProt Q15084 20-440, looked up)
chain: LYSSSDDVIELTPSNFNREVIQSDSLWLVEFYAPWCGHCQRLTPEWKKAATALKDVVKVGAVDADKHHSLGGQYGVQGFPTIKIFGSNKNRPEDYQGGRTGEAIVDAALSALRQLVKDRLGGRSGGYSSGKQGRSDSSSKKDVIELTDDSFDKNVLDSEDVWMVEFYAPWCGHCKNLEPEWAAAASEVKEQTKGKVKLAAVDATVNQVLASRYGIRGFPTIKIFQKGESPVDYDGGRTRSDIVSRALDLFSDNAPPPELLEIINEDIAKRTCEEHQLCVVAVLPHILDTGAAGRNSYLEVLLKLADKYKKKMWGWLWTEAGAQSELETALGIGGFGYPAMAAINARKMKFALLKGSFSEQGINEFLRELSFGRGSTAPVGGGAFPTIVEREPWDGRDGELPVEDDIDLSDVELDDLGKDEL
Regarding B1, the “stoichiometry N” value is 2.

The values are drawn from paper doi:10.1101/2020.11.17.387910 (bioRxiv, 2020).
